The experiment concerns the target purified human complement Factor H (human) (UniProt P08603). In words: steady state fluorescence titration of purified human Factor H.

purified human complement Factor H (human), sequence (P08603 19-1231 limits assumed): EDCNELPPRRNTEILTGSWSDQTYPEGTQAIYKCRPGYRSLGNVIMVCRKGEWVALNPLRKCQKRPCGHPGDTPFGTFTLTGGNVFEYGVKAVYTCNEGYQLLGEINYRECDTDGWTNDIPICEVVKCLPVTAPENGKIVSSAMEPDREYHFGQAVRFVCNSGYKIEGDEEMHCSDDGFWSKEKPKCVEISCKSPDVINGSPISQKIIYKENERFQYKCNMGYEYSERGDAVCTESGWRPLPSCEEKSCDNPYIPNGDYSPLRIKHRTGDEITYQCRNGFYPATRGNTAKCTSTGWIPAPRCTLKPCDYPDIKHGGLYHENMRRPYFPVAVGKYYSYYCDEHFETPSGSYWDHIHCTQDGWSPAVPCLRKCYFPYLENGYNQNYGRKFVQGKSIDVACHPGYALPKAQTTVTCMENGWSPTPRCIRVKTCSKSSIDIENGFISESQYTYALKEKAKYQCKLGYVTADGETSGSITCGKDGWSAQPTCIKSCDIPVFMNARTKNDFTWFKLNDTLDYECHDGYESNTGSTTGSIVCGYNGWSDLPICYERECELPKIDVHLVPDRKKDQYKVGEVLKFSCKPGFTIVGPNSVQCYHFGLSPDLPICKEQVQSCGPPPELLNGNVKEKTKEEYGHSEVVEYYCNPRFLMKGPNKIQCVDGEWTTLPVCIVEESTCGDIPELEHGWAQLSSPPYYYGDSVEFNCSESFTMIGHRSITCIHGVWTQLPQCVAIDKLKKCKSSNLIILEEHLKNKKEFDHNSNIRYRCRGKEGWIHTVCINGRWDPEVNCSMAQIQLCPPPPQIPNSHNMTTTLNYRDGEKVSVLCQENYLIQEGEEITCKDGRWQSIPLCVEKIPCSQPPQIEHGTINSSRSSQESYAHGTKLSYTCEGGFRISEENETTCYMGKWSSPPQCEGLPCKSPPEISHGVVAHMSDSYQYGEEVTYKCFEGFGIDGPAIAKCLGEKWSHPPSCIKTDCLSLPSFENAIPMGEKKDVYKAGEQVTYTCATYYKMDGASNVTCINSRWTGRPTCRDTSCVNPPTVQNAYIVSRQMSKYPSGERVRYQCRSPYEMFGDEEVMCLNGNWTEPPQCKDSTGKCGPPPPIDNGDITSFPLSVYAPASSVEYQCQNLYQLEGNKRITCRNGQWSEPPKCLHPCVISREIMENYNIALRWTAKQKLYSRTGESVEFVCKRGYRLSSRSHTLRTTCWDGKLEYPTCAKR

Turning to “recombinant osteopontin (rOPN) (from UniProt P10451 17-314) (ligand)”, the stoichiometry (OPN:Factor H) is 1 molar ratio.

For the origin of these results see patent EP1169642B1.
